From the supplement of paper PMC5998384

Key:
[1] = test system: HeLa Kyoto; assay: melting temperature (median over replicates), in situ; higher = more thermally stable
[2] = test system: HeLa Kyoto; assay: solubility in G1/S (NP-40 vs SDS abundance) (log2 ratio); higher = more soluble; settings: cell cycle stage: G1/S
[3] = test system: HeLa Kyoto; assay: solubility change mitosis vs G1/S (difference of NP-40 vs SDS log2 ratios) (log2 ratio difference); higher = more soluble in mitosis
[4] = test system: HeLa Kyoto; assay: thermal stability score vs G1/S (z-score of summed log2 fold changes over temperatures); higher = more thermally stable than in G1/S
[5] = cell cycle stage: early G1 (4.5 h after nocodazole release)
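Throughout, for melting temperature (median over replicates), in situ: HeLa Kyoto cells synchronized by double thymidine or nocodazole block, proteins quantified by TMT10plex mass spectrometry, three independent biological replicates.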
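Throughout, for solubility change mitosis vs G1/S (difference of NP-40 vs SDS log2 ratios): synchronized HeLa Kyoto cells (double thymidine block for G1/S, nocodazole release for mitosis), protein amounts in NP-40 versus SDS lysates quantified by mass spectrometry, three biological replicates.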
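Throughout, for solubility in G1/S (NP-40 vs SDS abundance): HeLa Kyoto cells arrested at G1/S by double thymidine block, proteins quantified by TMT10plex mass spectrometry in mild NP-40 versus SDS extracts, three biological replicates.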
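Throughout, for thermal stability score vs G1/S (z-score of summed log2 fold changes over temperatures): synchronized HeLa Kyoto cells, proteins quantified by TMT10plex mass spectrometry, three biological replicates, mitosis taken 0.5 h after nocodazole release, G1/S directly after double thymidine block.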

Chain of UBE2V2 (chain, as listed by the source): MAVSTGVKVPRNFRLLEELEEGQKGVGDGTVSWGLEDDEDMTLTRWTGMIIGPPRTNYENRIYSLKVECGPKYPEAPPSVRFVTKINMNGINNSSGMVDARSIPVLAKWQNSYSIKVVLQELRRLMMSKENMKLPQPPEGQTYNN

| Substance | melting temperature ([1]; cell cycle stage: G1/S) [°C] | melting temperature ([1]; cell cycle stage: mitosis) [°C] | solubility in G1/S (log2) [2] | solubility change mitosis (log2) [3] | thermal stability score [4, 5] | thermal stability score ([4]; cell cycle stage: mitosis) |
| --- | --- | --- | --- | --- | --- | --- |
| MAAASVTPPGSLELLQPGFSKTLLGTKLEAKYLCSACRNVLRRPFQAQCGHRYCSFCLASILSSGPQNCAACVHEGIYEEGISILESSSAFPDNAARREVESLPAVCPSDGCTWKGTLKEYESCHEGRCPLMLTECPACKGLVRLGEKERHLEHECPERSLSCRHCRAPCCGADVKAHHEVCPKFPLTCDGCGKKKIPREKFQDHVKTCGKCRVPCRFHAIGCLETVEGEKQQEHEVQWLREHLAMLLSSVLEAKPLLGDQSHAGSELLQRCESLEKKTATFENIVCVLNREVERVAMTAEACSRQHRLDQDKIEALSSKVQQLERSIGLKDLAMADLEQKVLEMEASTYDGVFIWKISDFARKRQEAVAGRIPAIFSPAFYTSRYGYKMCLRIYLNGDGTGRGTHLSLFFVVMKGPNDALLRWPFNQKVTLMLLDQNNREHVIDAFRPDVTSSSFQRPVNDMNIASGCPLFCPVSKMEAKNSYVRDDAIFIKAIVDLTGL [TRAF2] | 52.5 | 52.2 | 0.0627 | -0.084 | -0.77 | -1.17 |
| MYHNSSQKRHWTFSSEEQLARLRADANRKFRCKAVANGKVLPNDPVFLEPHEEMTLCKYYEKRLLEFCSVFKPAMPRSVVGTACMYFKRFYLNNSVMEYHPRIIMLTCAFLACKVDEFNVSSPQFVGNLRESPLGQEKALEQILEYELLLIQQLNFHLIVHNPYRPFEGFLIDLKTRYPILENPEILRKTADDFLNRIALTDAYLLYTPSQIALTAILSSASRAGITMESYLSESLMLKENRTCLSQLLDIMKSMRNLVKKYEPPRSEEVAVLKQKLERCHSAELALNVITKKRKGYEDDDYVSKKSKHEEEEWTDDDLVESL [CCNH] | 51.1 | 52.2 | 0.259 | -0.195 | 0.868 | 1.73 |
| MEFAAENEGKSGGGLHSVAEGVRLSPEPGREGVRDLAGAEEFGGGEEGTGLTGIKEIGDGEEGSGQRPEEIPMDLTVVKQEIIDWPGTEGRLAGQWVEQEVEDRPEVKDENAGVLEVKQETDSSLVVKEAKVGEPEVKEEKVKEEVMDWSEVKEEKDNLEIKQEEKFVGQCIKEELMHGECVKEEKDFLKKEIVDDTKVKEEPPINHPVGCKRKLAMSRCETCGTEEAKYRCPRCMRYSCSLPCVKKHKAELTCNGVRDKTAYISIQQFTEMNLLSDYRFLEDVARTADHISRDAFLKRPISNKYMYFMKNRARRQGINLKLLPNGFTKRKENSTFFDKKKQQFCWHVKLQFPQSQAEYIEKRVPDDKTINEILKPYIDPEKSDPVIRQRLKAYIRSQTGVQILMKIEYMQQNLVRYYELDPYKSLLDNLRNKVIIEYPTLHVVLKGSNNDMKVLHQVKSESTKNVGNEN [ZNHIT6] | 48.4 | 50.2 | 0.0397 | -0.116 | 1.3 | 2.06 |
| MPLFFRKRKPSEEARKRLEYQMCLAKEAGADDILDISKCELSEIPFGAFATCKVLQKKVLIVHTNHLTSLLPKSCSLLSLATIKVLDLHDNQLTALPDDLGQLTALQVLNVERNQLMQLPRSIGNLTQLQTLNVKDNKLKELPDTVGELRSLRTLNISGNEIQRLPQMLAHVRTLEMLSLDASAMVYPPREVCGAGTAAILQFLCKESGLEYYPPSQYLLPILEQDGIENSRDSPDGPTDRFSREELEWQNRFSDYEKRKEQKMLEKLEFERRLELGQREHTQLLQQSSSQKDEILQTVKEEQSRLEQGLSEHQRHLNAERQRLQEQLKQTEQNISSRIQKLLQDNQRQKKSSEILKSLENERIRMEQLMSITQEETESLRRRDVASAMQQMLTESCKNRLIQMAYESQRQNLVQQACSSMAEMDERFQQILSWQQMDQNKAISQILQESAMQKAAFEALQVKKDLMHRQIRSQIKLIETELLQLTQLELKRKSLDTESLQEMISEQRWALSSLLQQLLKEKQQREEELREILTELEAKSETRQENYWLIQYQRLLNQKPLSLKLQEEGMERQLVALLEELSAEHYLPIFAHHRLSLDLLSQMSPGDLAKVGVSEAGLQHEILRRVQELLDAARIQPELKPPMGEVVTPTAPQEPPESVRPSAPPAELEVQASECVVCLEREAQMIFLNCGHVCCCQQCCQPLRTCPLCRQDIAQRLRIYHSS [LRSAM1] | 51 | 50.9 | 0.149 | -0.0589 | 0.0283 | 0.57 |
| UBE2V2 | 52.5 | 52.9 | 0.464 | 0.122 | 0.348 | -0.815 |
